# B1: Cross311×Trop2 (bispecific antibody)
# scFv: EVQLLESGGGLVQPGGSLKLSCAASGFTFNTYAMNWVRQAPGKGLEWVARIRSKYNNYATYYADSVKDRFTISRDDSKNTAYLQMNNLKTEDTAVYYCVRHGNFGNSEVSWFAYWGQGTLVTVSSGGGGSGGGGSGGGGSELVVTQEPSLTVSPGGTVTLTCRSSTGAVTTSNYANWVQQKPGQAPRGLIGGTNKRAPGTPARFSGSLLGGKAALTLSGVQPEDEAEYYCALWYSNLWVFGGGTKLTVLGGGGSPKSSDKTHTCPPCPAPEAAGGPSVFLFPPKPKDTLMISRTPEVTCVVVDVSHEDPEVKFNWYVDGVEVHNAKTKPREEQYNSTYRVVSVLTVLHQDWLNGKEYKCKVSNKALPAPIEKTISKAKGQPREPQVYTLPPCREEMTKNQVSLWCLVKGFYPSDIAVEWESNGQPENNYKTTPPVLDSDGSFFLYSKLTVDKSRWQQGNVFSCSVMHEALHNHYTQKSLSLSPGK
# heavy: QVQLQQSGSELKKPGASVKVSCKASGYTFTNYGMNWVKQAPGQGLKWMGWINTYTGEPTYTDDFKGRFAFSLDTSVSTAYLQISSLKADDTAVYFCARGGFGSSYWYFDVWGQGSLVTVSSASTKGPSVFPLAPSSKSTSGGTAALGCLVKDYFPEPVTVSWNSGALTSGVHTFPAVLQSSGLYSLSSVVTVPSSSLGTQTYICNVNHKPSNTKVDKKVEPKSSDKTHTCPPCPAPEAAGGPSVFLFPPKPKDTLMISRTPEVTCVVVDVSHEDPEVKFNWYVDGVEVHNAKTKPREEQYNSTYRVVSVLTVLHQDWLNGKEYKCKVSNKALPAPIEKTISKAKGQPREPQVCTLPPSREEMTKNQVSLSCAVKGFYPSDIAVEWESNGQPENNYKTTPPVLDSDGSFFLVSKLTVDKSRWQQGNVFSCSVMHEALHNHYTQKSLSLSPGK
# light: DIQLTQSPSSLSASVGDRVSITCKASQDVSIAVAWYQQKPGKAPKLLIYSASYRYTGVPDRFSGSGSGTDFTLTISSLQPEDFAVYYCQQHYITPLTFGAGTKVEIKRTVAAPSVFIFPPSDEQLKSGTASVVCLLNNFYPREAKVQWKVDNALQSGNSQESVTEQDSKDSTYSLSSTLTLSKADYEKHKVYACEVTHQGLSSPVTKSFNRGEC
# Columns and labels:
# CD3E&D protein = target: T1, CD3E&D protein (UniProt P04234 22-105); assay: ELISA, coated CD3E&D protein, OD450
# T1 construct: Purchased from Acro; also called CD3 E&D antigens; CD3E&D antigen protein
# T1 sequence (chain, as listed by the source limits assumed, chain 1 of 2): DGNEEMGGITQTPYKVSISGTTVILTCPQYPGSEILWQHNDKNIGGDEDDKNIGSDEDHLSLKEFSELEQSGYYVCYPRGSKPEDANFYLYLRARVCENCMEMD
# T1 sequence (P04234 22-105 limits assumed, chain 2 of 2): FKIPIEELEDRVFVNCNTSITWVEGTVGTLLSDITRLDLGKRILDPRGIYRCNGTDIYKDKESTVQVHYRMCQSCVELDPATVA
# Description: In this example, the binding properties of the CD3×Trop2 and CD3×PDL1 bispecific antibody (the production method and the amino acid sequences of the heavy and light chains were shown in Example 1) were detected by using ELISA. The CD3E&D, Trop2, or PDL1 protein was coated onto 96-well plates by inventors, and the strength of the signal after the addition of the antibody was used to determine the binding properties of the antibody and the corresponding protein.
# (1) CD3E&D protein (purchased from Acro) was diluted to 2 μg/ml with PBS buffer, added to a 96-well plate at a volume of 100 μL/well, and placed at 4° C. overnight. The PBS buffer in the 96-well plate was aspirated, and the plate was washed 6 times with PBST (pH 7.2 PBS containing 0.1% Tween 20) buffer. Then, 200 μL/well PBS/10% BSA was added and incubated at 37° C. for 2 h for blocking. The blocking solution was removed, and the plate was washed 6 times with PBST. […] The absorbance was read at 450 nm using a microplate reader.
# CD3 on CD8 T cells = target: T2, CD3 on CD8 T cells (Homo sapiens (Human), UniProt P07766 23-207); assay: flow cytometry, CD8 T cells in PBMCs, binding ratio % [panel A]
# T2 construct: Native CD3 complex on CD8 T cells among PBMCs; also called T cells (PBMCs gated with anti-human CD8 antibody)
# T2 sequence (P07766 23-207 limits assumed): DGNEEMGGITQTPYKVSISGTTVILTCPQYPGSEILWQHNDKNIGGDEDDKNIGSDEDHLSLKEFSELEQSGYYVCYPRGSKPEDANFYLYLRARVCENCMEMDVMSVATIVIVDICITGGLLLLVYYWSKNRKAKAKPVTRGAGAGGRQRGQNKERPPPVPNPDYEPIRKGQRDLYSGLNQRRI
binder,measurement,setting,value
B1,EC50 (read off the curve),CD3E&D protein,~0.04 µg/mL
same,EC50 (read off the curve),CD3 on CD8 T cells,~0.7 µg/mL

# Source: US20260125472A1 (HEFEI TG IMMUNOPHARMA, published 2026)
